Laboratory results from patent US20130323263A1, “SPARC ANGIOGENIC DOMAIN AND METHODS OF USE” (ABRAXIS BIOSCIENCE, LLC, priority 2010, published 2013).

Columns and labels:
HUVEC [1] = assay: HUVEC (3-D) tube formation assay; type: cell-based; conditions: for angiogenic activity: FIG. 2
Experimental: (§1) Recombinant human SPARC and genetically engineered variants were expressed and purified using HEK 293 cells maintained in hollow fiber bio-reactors. The angiogenic activity of rhSPARC and its variants was evaluated using a HUVEC tube formation assay and a HUVEC sprout formation bead assay.
(§2) In the HUVEC tube formation assay, rhSPARC was pro-angiogenic at 10 μg/mL and anti-angiogenic at 100 μg/mL. […] Additional rhSPARC variants with deletions and single/double amino acid substitutions tested in these assays included: Q3 deletion (BIO2), an inversion of the putative angiogenic domain (BIOS), a double K>Q substitution in the proposed angiogenic domain (BIO11), the genetic ablation of the putative catephsin K recognition sites (BIO8), and a proteolytic degradation product of rhSPARC. Terminal amino acid analysis indicated the angiogenic activity is localized to SEQ ID NO: 1.

HUVEC [2] = assay: HUVEC sprout formation bead assay; type: cell-based
Experimental: as §1, §2

B1: rhSPARC: Recombinant human SPARC expressed and purified using HEK 293 cells (protein, UniProt P09486 18-303, looked up)
SPARC: APQQEALPDETEVVEETVAEVTEVSVGANPVQVEVGEFDDGAEETEEEVVAENPCQNHHCKHGKVCELDENNTPMCVCQDPTSCPAPIGEFEKVCSNDNKTFDSSCHFFATKCTLEGTKKGHKLHLDYIGPCKYIPPCLDSELTEFPLRMRDWLKNVLVTLYERDEDNNLLTEKQKLRVKKIHENEKRLEAGDHPVELLARDFEKNYNMYIFPVHWQFGQLDQHPIDGYLSHTELAPLRAPLIPMEHCTTRFFETCDLDNDKYIALDEWAGCFGIKQKDIDKDLVI
HUVEC [1]; HUVEC 3-D tube formation, concentrations up to 100 ug/ml, FIG. 4
  angiogenic behavior over concentration: increases as the concentration approaches 10 ug/ml and drops off as it approaches 100 ug/ml
HUVEC [1]; at 10 μg/mL
  angiogenic activity: pro-angiogenic
HUVEC [1]; at 100 μg/mL
  angiogenic activity: anti-angiogenic
HUVEC [2]
  blood vessel maturity on addition of the protein: more mature blood vessels well supported by pericytes
